Measured values as given in article PMC9270183 (The Journal of Experimental Medicine, 2022).

B1: V010 (antibody, V domains shown)
VH: QVQLQESGPGLVKPSETLSLTCTVSGGSISSYYWSWIRQPPGKGLEWIGYIYYNGSTNYNPSLKSRVTISLDTSKNQFSLKLSSVTAADTAVYYCASDYYDSSGYYYGFDYWGQGTLVTVSS
VL: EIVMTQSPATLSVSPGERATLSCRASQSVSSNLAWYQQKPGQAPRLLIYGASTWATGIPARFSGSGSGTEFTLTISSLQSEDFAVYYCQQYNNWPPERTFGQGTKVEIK
notes: IgG; donor BRA13; source: recombinant monoclonal IgG, produced and purified as previously described
B2: V025 (antibody, V domains shown)
VH: QVQLVQSGAEVKKPGASVKVSCKASGYTFTSYGISWVRQAPGQGLEWMGWISVYNGKTNYAQKLQGRVTMTTDTSTSTAYMELRSLISDDTAVYYCARADRYNWDYGSSWGQGTLVTVSS
VL: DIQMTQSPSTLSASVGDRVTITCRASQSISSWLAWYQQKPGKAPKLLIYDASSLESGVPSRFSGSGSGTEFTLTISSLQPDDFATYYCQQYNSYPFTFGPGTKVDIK
notes: as for B1
B3: V063 (antibody, V domains shown)
VH: QVQLVESGGGVVQPGRSLRLSCAASGFPFSSFGMHWVRQAPGKGLEWVAVISSDGSNKYYADSVKGRFTISRDNSKNTLYLQMNSLRAEDTAVYYCAKEFTYVVVTAFWGTENFDIWGQGTMVTVSS
VL: DIQMTQSPSTLSASVGDRVTITCRASQSISSWLAWYQQKPGKAPNLLIYKASALESGVPSRFSGSGSGTEFTLTISSLQPDDFATYYCQQYNSYPITFGQGTRLEIK
notes: IgG; donor BRA15; source: recombinant monoclonal IgG, produced and purified as previously described
B4: V016 (antibody, V domains shown)
VH: QVQLVESGGGVVQPGRSLRLSCAASGFTFSNYGMHWVRQAPGKGLEWVAVISYDGSNKYYADSVKGRFTISRDNSKNTLYLQMNSVRVEDTAVYYCAKGSFGYSYVHTYFDYWGQGTLVTVSS
VL: DIQMTQSPSTLSASVGDRVTITCRASQSISSWLAWYQQKPGKAPKLLIYDASSLESGVPSRFSGSGSGTEFILTISSLQPDDFATYYCQQYNSPMYTFGQGTKLEIK
notes: as for B1
B5: V011 (antibody, V domains shown)
VH: QVQLVQSGAEVKKPGASVKVSCKASGYIFTSYDINWVRQATGQGLEWMGWMNPNSGNTGYAQKFQGRVTMTRNTSISTAYMELSSLRSEDTAVYYCARASSSLTYYFDYWGQGTLVTVSS
VL: SYELTQPPSVSVAPGKTARITCGENNIGSKSVHWYQQKPGQAPVLVVYDDSDRPSGIPERFSGSNSGNTATLTISRVEAGDEADYYCQVWDSSSDPVVFGGGTKLTVL
notes: as for B1
B6: V002 (antibody, V domains shown)
VH: EVQLVESGGGLVQPGRSLRLSCAASGFTFDEYAMHWVRQAPGKGLEWVSGSSWNSGTIGYADSVKGRFTISRDNAKNSLYLQMNSLRAEDTALYYCAKSQGDYGGNSGAGYFQHWGQGTLVTVSS
VL: SYELTQPPSVSVAPGKTARITCGGNNIGSKSVHWYQQKPGQAPMLVVYDDSDRPSGIPERFSGSNSGNTATLTISRVEAGDEADYYCQVWDSSSEVYVFGTGTKVTVL
notes: as for B1
B7: V003 (antibody, V domains shown)
VH: EVQLVQSGAEVKKPGESLKISCLGSGYSFTSYWIGWVRQMPGKGLEWMGIIFPADSDTRYSPSFQGQVIISADKSISTAYLQWSSLKASDTAMYYCARLREFGDYYYYGMDVWGQGTTVTVSS
VL: DIQLTQSPSSLSASVGDRVTITCRASQGISSYLAWYQQKPGKAPKLLIYAASTLQSGVPSRFSGSGSGTDFTLTISSLQPEDFATYYCQQLNSYPDFGQGTKLEIK
notes: as for B1
B8: V022 (antibody, V domains shown)
VH: EVQLVESGGGLVKPGGSLRLSCAASGFTFSSYSMNWVRQAPGKGLEWVSSISSTNNYIYNADSVKGRFTISRDNAKNSLYLQMNSLRAEDTAVYYCARDPAGRYSYGLYYFYYMDVWGKGTTVTVSS
VL: QSALTQPASVSGSPGQSITISCTGTSSDVGGYNYVSWYQQRPGKAPKLMIYDVSNRPSGVSDRFSGSKSGNTASLTISGLQAEDEADYYCTSYTSSSSLYVFGTGTKVTVL
notes: as for B1
B9: V064 (antibody, V domains shown)
VH: EVQLVESGGGLVQPGGSLRLSCAASGLTVSRNYMRWVRQAPGKGLEWVSLIYSGGSTFYGDSVKGRFTISRDNSKNTLYLQMNSLRAEDTAVYYCARDLVRDGMDVWGQGTTVTVSS
VL: EIVMTQSPATLSVSPGERATLSCRASQSVSSNLAWYQQKPGQAPRLLIYGASTRATGIPARFSGSGSGTEFTLTISSLQSEDFAVYYCQQYNNWTFGQGTKVEIK
notes: as for B3
B10: V020 (antibody, V domains shown)
VH: QVQLVESGGGVVQPGRSLRLSCAASGFTFSSYGMHWVRQAPGKGLEWVAVISYDGSNKYYADSVKGRFTISRDNSKNTLYLQMNSLRAEDTAVYYCAKGGWFGELLRYFDYWGQGTLVTVSS
VL: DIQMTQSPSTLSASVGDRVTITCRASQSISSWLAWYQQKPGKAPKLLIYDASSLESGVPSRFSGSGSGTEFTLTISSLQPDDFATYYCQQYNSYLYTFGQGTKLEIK
notes: as for B1
B11: V026 (antibody, V domains shown)
VH: QVQLVESGGGVVQPGRSLRLSCAVSGFTFSSYGMHWVRQAPGKGLEWVAVISYEGSNKYYADSVKGRFTISRDNSKNTLYLQMNSLRAEDTAVYYCAKGGWYGSPTYYFDYWGQGTLVTVSS
VL: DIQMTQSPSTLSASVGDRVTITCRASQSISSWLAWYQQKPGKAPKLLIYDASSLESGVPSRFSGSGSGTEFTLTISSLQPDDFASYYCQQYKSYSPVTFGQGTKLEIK
notes: as for B1
B12: V028 (antibody, V domains shown)
VH: QVQLVESGGGVVQPGRSLRLSCAASGFTFSSYGMHWVRQAPGKGLEWVAVVSFDGSDKYYADSVKGRFTISRDNSKNTLYLQMNSLRAEDTALYYCAKGGYSYAYPRYYFDYWGQGTLVTVSS
VL: DIQMTQSPSSLSASVGDRVTITCQASQDISNYLNWYQQKPGKAPKLLIYDASNLETGVPSRFSGSGSGTDFTFTISSLQPEDIATYYCQQHDNLPITFGQGTRLEIK
notes: IgG; donor BRA14; source: recombinant monoclonal IgG, produced and purified as previously described
B13: V031 (antibody, V domains shown)
VH: QVQLVESGGGVVQPGRSLRLSCAASGFTFSSYGMHWVRQAPGKGLEWVAVISYDGSNKYYADSVKGRFAFSRDNSKNTLYLQMNSLRAEDTAVYYCAKGGYSYAYPRYYFDYWGQGTLVTVSS
VL: DIQMTQSPSSLSASVGDRVTITCQASQDISNYLNWYQQKPGKAPKLLIYDASNLETGVPSRFSGSGSGTDFTFTISSLQPEDIATYYCQQHDNLPITFGQGTRLEIK
notes: as for B12
B14: V056 (antibody, V domains shown)
VH: QVQLVESGGGVVQPGRSLRLSCAASGFPFSNYGMHWVRQAPGKGLEWVAVISYDGSNKYYADSVKGRFTISRDNSKNTLYLQMNSLRAEDTALYYCAKDSRPLPAAMSTYYYYGVDVWGQGTTVTVSS
VL: not shown
notes: as for B3
B15: V060 (antibody, V domains shown)
VH: QVQLVESGGGVVQPGRSLRLSCAASGFPFSNYGMHWVRRAPGKGLEWVAVISYDGLNKYYADSVKGRFTISRDNSKNTLYLQMNRLRAEDTAVYYCAKDSRPVPGAMSTYYYYGMDVWGQGTTVTVSS
VL: not shown
notes: as for B3
B16: V062 (antibody, V domains shown)
VH: QLQLQESGPGLVKPSETLSLTCTVSSGSISSSSYYWGWIRQPPGKGLEWIGSIYYSGSTYYNPSLKSRVTISVDTSKNQFSLKLSSVTAADTAVYYCARHWRENFAHAFDIWGQGTMVTVSS
VL: QSALTQPASVSGSPGQSITISCTGTSSDVGSYDLVSWFQQHPGKAPKLMIYEVTKRPSGVSNRFSGSKSGNTASLTISGLQAEDEADYYCCSYVGSSTYWVFGGGTKLTVL
notes: as for B3
B17: V014 (antibody, V domains shown)
VH: EVQLVESGGGLVQPGGSLRLSCAASGFTFSSYDMHWVRQATGKGLEWVSAIGTAGDTYYPGSVKGRFTISRENAKNSLYLQMNSLRAGDTAVYYCARGVITMVRGVIRDYYYYGMDVWGQGTTVTVSS
VL: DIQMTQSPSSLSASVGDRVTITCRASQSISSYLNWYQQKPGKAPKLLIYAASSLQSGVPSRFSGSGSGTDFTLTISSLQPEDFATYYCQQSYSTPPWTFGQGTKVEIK
notes: as for B1
B18: V015 (antibody, V domains shown)
VH: EVQLVESGGGLVQPGGSLRLSCAASGFTFNSYWMSWVRQAPGKGLEWVANIKQDGSEKYYVDSVKGRFTISRDNAKNSLYLQMNSLRAEDTAVYYCARLPTYYSGFDYWGQGTLVTVSS
VL: NFMLTQPHSVSESPGKTVTISCTGSSGSIASNYVQWYQQRPGSAPTTVIYEDNQRPSGVPDRFSGSIDSSSNSASLTISGLKTEDEADYYCQSYDSTNRGVVFGGGTKLTVL
notes: as for B1
B19: V061 (antibody, V domains shown)
VH: QVQLVQSGAEVKKPGTSVKVSCKASGYTFKNYGISWVRQAPGQGLEWMGWISAHNGNTNYAQRVQGRVTMTTDTSTSTAYMELRSLRSEDTAVYYCGRESGVASHPGDLDYWGQGTLVTVSS
VL: SYELTQPPSVSVSPGQTARITCSGDALPRQYAYWYQQKPGQAPVLLIYKDSERPSGIPERFSGSSSGTTVTLTISGVQAEDEADYYCQSADSSVVFGGGAKLTVL
notes: as for B3
B20: V019 (antibody, V domains shown)
VH: QVQLVQSGAEVKKPGSSVKVSCKASGGTFSTYTFSWVRQAPGQGLEWMGRIIPILGIANYAQKFQGRITITADKSTSTAYMELSSLRSEDTAVYYCAWGSYSYGYFVDIWGQGTMVTVSS
VL: DIVMTQTLLSLSVTPGQPASISCKSSQSLLHSDGKTYLYWYLQKPGQSPQLLIYEVSSRFSGVPDRFSGSGSGTDFTLKISRVEAEDVGVYYCMQGIQFHWTFGQGTKLEIK
notes: as for B1
B21: V009 (antibody, V domains shown)
VH: EVQLVQSGAEVKKPGESLKISCKGSGYRFTSYWIGWVRQMPGKGLEWMGIIYAGDSDTRYSPSFQGQVTISVDKSISTAYLQWSSLKASDTAMYYCATTMTTGYFDYWGQGTLVTVSS
VL: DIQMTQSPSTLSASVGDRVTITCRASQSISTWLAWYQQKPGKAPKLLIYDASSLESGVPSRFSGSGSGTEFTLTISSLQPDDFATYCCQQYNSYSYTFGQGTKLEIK
notes: as for B1
B22: V013 (antibody, V domains shown)
VH: QVQLVESGGGVVQPGRSLRLSCAGSGFIFSSFAMHWVRQAPGKGLEWVAVVSYDGDNKYYADSVKGRFTISRDNSKNTLYLQMDSLRPEDTAVYFCGRDEAALWIQRWYREIDFWGQGTLVTVSS
VL: QSVLTQPPSVSGTPGQRVTISCSGSSSNTGRNPVTWYQQFPGSAPKLLISRNNQRPSGVPDRFSGSKSGTSASLAISGLQSEDEADYYCAAWDDNLNGQVFGGGTKVTVL
notes: as for B1
B23: V017 (antibody, V domains shown)
VH: EVQLVESGGGLVQPGGSLRLSCVASGFTFSTYSMNWVRQAPGKGLEWVSYISSSSSTIYYADSVKGRFTISRDNAKSSLYLQMNSLRAEDTAVYYCASGLCGGDCPLTCWGQGTLVTVSS
VL: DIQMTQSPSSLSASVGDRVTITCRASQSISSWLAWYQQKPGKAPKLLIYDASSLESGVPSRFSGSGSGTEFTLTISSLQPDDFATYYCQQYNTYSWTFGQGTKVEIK
notes: as for B1
B24: V057 (antibody, V domains shown)
VH: EVQLVESGGGLVQPGRSLRLSCAASGFTFGDYAMHWVRQAPGKGLEWVSGISWNSGIIGQADSVKGRFTISRDNAKNSLYLQMNSLRVEDTALYYCAKGGGESVEVPADEKLDYWGQGTLVTVSS
VL: QSVLTQPPSVSGAPGQRVTISCTGSSSNIGAGYDVHWYQQLPGTAPKLLIYGNNNRPSGVPDRFSGSKSGTSASLAITGLQAEDEADYYCQSYDSSLSGSWVFGGGTKLTVL
notes: as for B3
B25: V047 (antibody, V domains shown)
VH: EVQLVESGGGLVQPGGSLRLSCAASGFTFSSYWMSWVRQAPGKGLEWVANIKQDGSEKYYVDSVKGRFTISRDNAKNSLYLQVNSLRAEDTAVYYCARGQSRQYSSSWYGPAPVVDYFDYWGQGTLVTVSS
VL: QSVLTQPPSASGTPGQRVTISCSGSSSNFGSNYVYWYQQLPGTAPKLLIYRNKQRPSGVPDRFSGSKSGTSASLAISGLRSEDEADYYCAAWDDSLSVLWVFGGGTKLTVL
notes: IgG; donor BRA15

target: SARS-CoV-2 Wuhan-Hu-1 RBD (SARS-CoV-2 Wuhan-Hu-1, UniProt P0DTC2); assay: BLI; details: both partners purified

For B1, which Kd is on record?
The Kd was 2.08 nM.

How did the Kd turn out when B2 was run?
The Kd was 1.93 nM.

B3 was tested. Which Kd did it give?
Its Kd is 4.16 nM.

B4 was tested. Which Kd did it give?
The Kd was 5.84 nM.

B5 was tested. Which Kd did it give?
The Kd was 7.46 nM.

For B6, which Kd is on record?
The Kd was 1170 nM.

For B7, which Kd is on record?
Its Kd is 2980 nM.

Which Kd does the source give for B8 here?
The Kd was 13 nM.

B9 was tested. Which Kd did it give?
Its Kd is 2.76 nM.

For B10, which Kd is on record?
Its Kd is 77.3 nM.

How did the Kd turn out when B11 was run?
Its Kd is 10.7 nM.

B12 was tested. Which Kd did it give?
The Kd was 19.8 nM.

For B13, which Kd is on record?
The Kd was 9.39 nM.

How did the Kd turn out when B14 was run?
Its Kd is 14.3 nM.

How did the Kd turn out when B15 was run?
Its Kd is 20.6 nM.

With B16 as the binder, how does the Kd read?
Its Kd is 2.86 nM.

How did the Kd turn out when B17 was run?
Its Kd is 15.1 nM.

For B18, which Kd is on record?
Its Kd is 15.8 nM.

Which Kd does the source give for B19 here?
Its Kd is 13.3 nM.

Which Kd does the source give for B20 here?
The Kd was 3.84 nM.

How did the Kd turn out when B21 was run?
Its Kd is 3.22 nM.

B22 was tested. Which Kd did it give?
Its Kd is 128 nM.

How did the Kd turn out when B23 was run?
The Kd was 18.4 nM.

B24 was tested. Which Kd did it give?
Its Kd is 16.9 nM.

Does B25 bind?
Result: no binding (tested: 100 µg/ml RBD)
